Data reported in article doi:10.1101/2025.11.06.687086 (2025).
Changes are numbered by the printed parent chain. Numbers in names are those of the source.

Target: A/Texas/37/2024 (H5N1) HA (influenza A virus A/Texas/37/2024 (H5N1))
Assay: BLI

B1: HB31 VH R55G germline revertant Fab (Fab, V domains shown)
VH: EVQLLESGGGLVQPGGSLRLSCTVSGFTSSNYDMSWVRQAPGKGLEWVSGISGTGGDTYYADSVKGRFTISRDNSKNTLSLQMNSLRADDTAVYFCARDRPVLRYFDWQPYGLDVWGKGTTVTVSS
VL: QSALTQPPSASGSPGQSVTISCTGTSSDVGGYNYVSWYQQYPSKAPKLMIYEVSKRPSGVPDRFSGSKSGNTASLTVSGLQAEDEADYYCNSYAGSNLYVFGTGTKVTVL
With B1 the Kd was 10.5 nM.

B2: HB31 Fab (Fab, V domains shown)
VH: B1 VH with G56R
VL: B1 VL
With B2 the Kd was 4.5 nM.
